Reference: US20230071371A1 (Scripps Research, published 2023)
Bridges are numbered along the chain shown (N, C = ends). Where no end group is shown, it is not given here. L1 = not defined here; L3 = not defined here; L4 = not defined here; L5 = not defined here

T1: GPR10 (UniProt P49683 1-370, limits assumed)
T1 sequence (looked up): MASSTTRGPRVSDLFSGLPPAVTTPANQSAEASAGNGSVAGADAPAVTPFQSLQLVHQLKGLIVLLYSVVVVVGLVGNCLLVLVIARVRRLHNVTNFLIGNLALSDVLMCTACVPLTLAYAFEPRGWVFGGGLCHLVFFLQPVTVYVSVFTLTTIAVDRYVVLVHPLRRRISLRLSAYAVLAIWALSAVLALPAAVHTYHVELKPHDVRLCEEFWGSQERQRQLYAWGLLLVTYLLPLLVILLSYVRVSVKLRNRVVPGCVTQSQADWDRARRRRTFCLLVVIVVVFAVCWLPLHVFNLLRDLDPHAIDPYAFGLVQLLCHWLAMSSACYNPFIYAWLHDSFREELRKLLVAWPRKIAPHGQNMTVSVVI


Biological target: T1, GPR10
Experiment: cell-based or functional assay

Binder | GPR10 EC50
TPDINPAWYTGRGIRPVGRF-NH2 [SEQ ID NO 106] | 13 nM
TCDINPAWCTGRGIRPVGRF-NH2 (cysteine pairing not given here) [SEQ ID NO 103] | 33 nM
TCDINPAWCTGRGIRPVGRF-NH2 (linker 2-9 via L1; reading uncertain) [Conjugate 204] | 12 nM
TCDINPAWCTGRGIRPVGRF-NH2 (linker 2-9 via L3; reading uncertain) [Conjugate 213] | 33 nM
TCDINPAWCTGRGIRPVGRF-NH2 (linker 2-9 via L4; reading uncertain) [Conjugate 214] | 230 nM
TCDINPAWCTGRGIRPVGRF-NH2 (linker 2-9 via L5; reading uncertain) [Conjugate 215] | 620 nM
TPCINPAWYCGRGIRPVGRF-NH2 (cysteine pairing not given here) [SEQ ID NO 104] | 16 nM
TPCINPAWYCGRGIRPVGRF-NH2 (linker 3-10 via L1; reading uncertain) [Conjugate 205] | 21 nM
TPDCNPAWYTCRGIRPVGRF-NH2 (cysteine pairing not given here) [SEQ ID NO 105] | 10 nM
TPDCNPAWYTCRGIRPVGRF-NH2 (linker 4-11 via L1; reading uncertain) [Conjugate 206] | 7.3 nM
TPDCNPAWYTCRGIRPVGRF-NH2 (linker 4-11 via L3; reading uncertain) [Conjugate 216] | 3.9 nM
TPDCNPAWYTCRGIRPVGRF-NH2 (linker 4-11 via L4; reading uncertain) [Conjugate 217] | 77 nM
TPDCNPAWYTCRGIRPVGRF-NH2 (linker 4-11 via L5; reading uncertain) [Conjugate 218] | 81 nM
TPDICPAWYTGCGIRPVGRF-NH2 (cysteine pairing not given here) [SEQ ID NO 83] | 44 nM
TPDICPAWYTGCGIRPVGRF-NH2 (linker 5-12 via L1; reading uncertain) [Conjugate 207] | 13 nM
TPDICPAWYTGCGIRPVGRF-NH2 (linker 5-12 via L3; reading uncertain) [Conjugate 219] | 25 nM
TPDICPAWYTGCGIRPVGRF-NH2 (linker 5-12 via L4; reading uncertain) [Conjugate 220] | 610 nM
TPDICPAWYTGCGIRPVGRF-NH2 (linker 5-12 via L5; reading uncertain) [Conjugate 221] | 840 nM
TPDINCAWYTGRCIRPVGRF-NH2 (cysteine pairing not given here) [SEQ ID NO 84] | 18 nM
TPDINCAWYTGRCIRPVGRF-NH2 (linker 6-13 via L1; reading uncertain) [Conjugate 208] | 15 nM
